In the data set the target is T1, HMGB1 box A (Rattus norvegicus (rat), UniProt P63159 8-81).
T1 sequence: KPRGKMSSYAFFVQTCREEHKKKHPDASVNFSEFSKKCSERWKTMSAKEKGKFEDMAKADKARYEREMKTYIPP
The data set can be described thus: X-ray crystallography; 2.0 A; 40 mM MgCl2, 50 mM sodium cacodylate pH 6.0, MPD; two box A per kinked duplex, one further duplex almost unbound; EMSA: 0.33x TBE (30 mM Tris-borate, 0.66 mM EDTA), 3% glycerol, 30 min incubation (temperature not stated), 6% native PAGE at 4 C; crystal complex: 1.6 mM protein, 0.8 mM DNA, about 1 h at 4 C. Particulars: protein: recombinant; tags: GST tag removed by thrombin; chain copies: 2; blunt; self-complementary decamer, 2 copies of the strand. (Mobility shift assays separate free from complexed probe on a gel.)

B1: d(ATATCGATAT)2 (dsDNA)
DNA 1: ATATCGATAT
DNA 2: ATATCGATAT
For B1, the binding result is recorded as “binds”.

These data come from publication PMC4498601, “Two high-mobility group box domains act together to underwind and kink DNA”.
